# Data taken from the DeepSol protein solubility set.
# Assay: soluble on expression in E. coli; label from the status in PepcDB or PDB records
row,Sequence,soluble on expression in E. coli
1,MKIYYLGPEGSYTEKAALKFAELTNLKITPAESIYSVFREVERGNYGVVPTENSIEGSVTLTLDLLLRFPVKIFGETSLEIKHALLGYDLSKIRVVLSHPQALAQCREFIQRMRWGVRETNSTAEAVKIVAESNDPTLAAIGSREAAEIYGLKVLAEDIQDYPNNKTRFILIGREDM,not soluble
2,MKKAVVLLSGGMDSATTLAIARQSGFACYALSIDYGQRHVAELAAAARIGQSLQVSDHQFLKLDLAVLASSVLTDISATVPLHGTSTGIPVTYVPARNTIMLALALAWAEVLGSHDIFIGVTAVDYSGYPDCRRDYIDAFEKMANLATKAGREGMVLTVHAPLIDLPKREIIQCGMELGIDYGLTVSCYQADEAGYACGQCDACHIRRAGFEAADIPDPTCYRNKQIS,not soluble
3,MKKDIILSGVGGQGILSIATVIGKAALKDGLYMKQAEVHGMSQRGGDVQSNLRISDQPIASDLIPSGKCDLIISLEPMEGLRYLPYLGHEGWLVTNETPFVNIPNYPAESDVMAEINKLPHKVVLNVDKVAKELGSTRVANIVLLGATIPFLGIDYEKIQDSIREIFQRKGDAIVELNLKALAAGKEIAEK,soluble
4,MKKDIILSGVGGQGILSIATVIGKAALKEGLYMKQAEVHGMSQRGGDVQSNLRISDKPIASDLIPSGKCDLIISLEPMEGLRYLPYLSPEGWLVTNETPFVNIPNYPEEDKVMAEINKLPHKIVLNVDKVAKEVGSARVANIVLLGATIPFLGIDYEKVQDSIREIFLRKGEAIVEMNLKALAAGKEIAEKLMQ,not soluble
5,MKKIGFVGAGSMAEAMINGILQSGITKPEHIYITNRSNDERLIELKETYSVRPCRDKNEFFTHTDIIILAFKPKDAAESIDSIRPYIKDQLVISVLAGLTIETIQHYFGRKLAVIRVMPNTSAAIRKSATGFSVSTEASKNDIIAAKALLETIGDATLVEERHLDAVTAIAGSGPAYVYRYIEAMEKAAQKVGLDKETAKALILQTMAGATDMLLQSGKQPEKLRKEITSPGGTTEAGLRALQDSRFEEAIIHCIEETAKRSAEIKEQFAGAALERHSLEHHHHHH,soluble
6,MKKIHPSAVIEEGAQLGDDVVIEAYAYVSKDAKIGNNVVIKQGARILSDTTIGDHSRVFSYAIVGDIPQDISYKEEQKSGVVIGKNATIREFATINSGTAKGDGFTRIGDNAFIMAYCHIAHDCLLGNNIILANNATLAGHVELGDFTVVGGLTPIHQFVKVGEGCMIAGASALSQDIVPFCLAEGNRASIRSLNLVGIRRRFDKDEVDRLSRAFKTLFRQGDLKENAKNLLENQESENVKKMCHFILETKRGIPVYRGKNNA,soluble
7,MKKILLLILITGLFSFGNSKNKIPTRKFTSVKISGPRYRLEGAFGILSSKENSSYMNNRFISNSISLLSEWKVQVNEKIDATFGPKVTLDFSFSIFKGLYTYKPNLNLGAEANFNYRIKEKMKVYGGVEIGTGVGISIENANIHKTILTTISKISVGVKINDKYNIGVYLGNNIKGMLGIEAGYTF,not soluble
8,MKKILVTGSLGQIGSELVMKLRDVYGASNVIATDIRETDSEVVTSGPFETLDVTDGQKLHDIAKRNEVDTIIHLAALLSATAEKNPLFAWNLNMGGLVNALEAARELNCKFFTPSSIGAFGPSTPKDNTPQDTIQRPTTMYGVNKVAGELLCDYYHQKFGVDTRGVRFPGLISYVAPPGGGTTDYAVEIYYEAIKKGAYTSYIAEGTYMDMMYMPDALQAIISLMEADPSKLVHRNAFNITAMSFEPEQIAASIRKHIPTFTMDYAVDPARQTIADSWPNSIDATAAMKEWGFKAEYDLDKMTTDMLAKLKKKLTAELVMN,not soluble
9,MKKISIEERPDWRATAEREGFNFHTIDGERYWDERGYYLFTEQQITRDLEAPTQALHQMCMDAVARVVDSEELLHQLAIPPAFFDVIQTSWKQGHPHLYARFDFAYDGTGPAKMYEINADTPTSLMEAGAFQLLWLEEQMARGVLPAHASQFNSIAEDLVRAFAEFPGASPFYFAAMSGSVEDRVTTDFLRRMAAHVGIDARHIDIEDIGLNDQGRFVDLDGRWIERLFKLHAWEHIFHEAFGKNVTASGTQFVEPAWKAILSNKGILPLLWQFNEGHPNLLPSRVDQDVTKPVPKGWVRKPYFSREGANIEMRTPGDQVIAVDGPYTDAPYILQAYSPLPKFGDSYTLIGSWVIGDLASGIGIREDDSLITKDTSRFLPHVVID,not soluble
10,MKKKIGLLVMAYGTPYKEEDIERYYTHIRRGRKPSPEMLEDLTERYRAIGGISPLATITLEQAKKLEKRLNEVQDEVEYHMYLGLKHIEPFIEDAVKEMHNDGIQDAIALVLAPHYSTFSVKSYVGRAQEEAEKLGNLTIHGIDSWYKEPKFIQYWVDAVKSIYSGMSDAEREKAVLIVSAHSLPEKIIAMGDPYPDQLNETADYIARGAEVANYAVGWQSAGNTPDPWIGPDVQDLTRELNEKYGYTSFVYAPVGFVAEHLEVLYDNDFECKVVTDEIGAKYYRPEMPNASDAFIDCLTDVVVKKKESVM,soluble
11,MKKKTTLSEEDQALFRQLMAGTRKIKQDTIVHRPQRKKISEVPVKRLIQEQADASHYFSDEFQPLLNTEGPVKYVRPDVSHFEAKKLRRGDYSPELFLDLHGLTQLQAKQELGALIAACRREHVFCACVMHGHGKHILKQQTPLWLAQHPHVMAFHQAPKEYGGDAALLVLIEVEEWLPPELP,not soluble
12,MKKLIINYTELVDYLLENRGMDGYIYFYESMETEQGIVISFSTFDTGDSIYRMKFCPSDHGYDTSLEPGSYSQSEYGTSFEEEDVEGYIAGLDEIIADKYKEFYDEDVEVVFVD,soluble
13,MKKMAFAAIALGLVACAPAQQQRLVYPPTVEVERIQLTSFSLPAPGRAAVAGVRLELNVDNPNPLPVRLVQLAGVLVLDGQEAGTVTVPDIRLPGQGRARQVAQLTLPVTFKTATTFLNIARGQEVSYRLDGTLTADLGPLGQPTFGPFTLTQGVWKQAPLSVF,soluble
14,MKKMFLILASAVVSLTACSKDSGDDDSPPIEKQPFNAVIKDGFKDENGVDLLPPRNIGNIKVGDYIPYNVTITDEVAEQEGETYRVVASTYDEGTHQERSVSYDIYLADKEDPTKMVLLENPEQLTFNKRGTYSFFIYPKEAGTYNLRFLLEKSVNNQKIGTSAIPIVTFNAVRITAYSHGYFTGKWKWEWSDSFIPILEEHSVNRRKFFFKIDDGSTEKDKYLQPEKAGIFYFTEYNGDNRGPLSFTVGAEYEYYPEQERTRAIQYLIFLLLK,not soluble
15,MKKQVVEVLVEGGKATPGPPLGPAIGPLGLNVKQVVDKINEATKEFAGMQVPVKIIVDPVTKQFEIEVGVPPTSQLIKKELGLEKGSGEPKHNIVGNLTMEQVIKIAKMKRSQMLALTLKAAAKEVIGTALSMGVTVEGKDPRIVQREIDEGVYDELFEKAEKE,soluble
16,MKKRAGIWAALLLAAVMLAGCGNPADQKDSKAKQKTEVFPVTIDDASNQDVTIKKEPKKIVSLMPSNTEITYALGLGDKVVGVTTNDTYPKEVKKVEKVGDMNVNVEKVISLKPDLVLAHESSMSASADAIKQLKDAGITVLTVNDAQSFSEVYKSIEMIGEAGGAEKKADQLVKSMKSDLKDIQEKAKTISKDEEKSVFIEVSPDPDIYTTGKDTFMNEMLNVIHAKNAAADQTGWVQMTDEAIVKLNPDAIVTTDGVKAKAVEKRDGWSEINAVKHHRVYDVDPDLVTRSGPRLIEGVEELAESIYPDTFKE,not soluble
17,MKKRHLLSLLALGISTACYGETYPAPIGPSQSDFGGVGLLQTPTARMAREGELSLNYRDNDQYRYYSASVQLFPWLETTLRYTDVRTRQYSSVEAFSGDQTYKDKAFDLKLRLWEESYWLPQVAVGARDIGGTGLFDAEYLVASKAWGPFDFTLGLGWGYLGTSGNVKNPLCSASDKYCYRDNSYKQAGSIDGSQMFHGPASLFGGVEYQTPWQPLRLKLEYEGNNYQQDFAGKLEQKSKFNVGAIYRVTDWADVNLSYERGNTFMFGVTLRTNFNDLRPSYNDNARPQYQPQPQDAILQHSVVANQLTLLKYNAGLADPQIQAKGDTLYVTGEQVKYRDSREGIIRANRIVMNDLPDGIKTIRITENRLNMPQVTTETDVASLKNHLAGEPLGHETTLAQKRVEPVVPQSTEQGWYIDKSRFDFHIDPVLNQSVGGPENFYMYQLGVMGTADLWLTDHLLTTGSLFANLANNYDKFNYTNPPQDSHLPRVRTHVREYVQNDVYVNNLQANYFQHLGNGFYGQVYGGYLETMFGGAGAEVLYRPLDSNWAFGLDANYVKQRDWRSAKDMMKFTDYSVKTGHLTAYWTPSFAQDVLVKASVGQYLAGDKGGTLEIAKRFDSGVVVGGYATITNVSKEEYGEGDFTKGVYVSVPLDLFSSGPTRSRAAIGWTPLTRDGGQQLGRKFQLYDMTSDRSVNFRLEHHHHHH,not soluble
18,MKKSKRKNAQAQEAQETEVLVQEEAEELPEFPEGEPDPDLEDPDLTLEDDLLDLPEEGEGLDLEEEEEDLPIPKISTSDPVRQYLHEIGQVPLLTLEEEVELARKVEEGMEAIKKLSEITGLDPDLIREVVRAKILGSARVRHIPGLKETLDPKTVEEIDQKLKSLPKEHKRYLHIAREGEAARQHLIEANLRLVVSIAKKYTGRGLSFLDLIQEGNQGLIRAVEKFEYKRRFKFSTYATWWIRQAINRAIADQARTIRIPVHMVETINKLSRTARQLQQELGREPTYEEIAEAMGPGWDAKRVEETLKIAQEPVSLETPIGDEKDSFYGDFIPDEHLPSPVDAATQSLLSEELEKALSKLSEREAMVLKLRKGLIDGREHTLEEVGAFFGVTRERIRQIENKALRKLKYHESRTRKLRDFLD,soluble
19,MKKSNIKTLEQFKDQNYGKKGTAKRDSLEMGYDTFKIGALIQEARIEKGMTQEELAIKCGTTKSYISRIENNIKEVRISTLQKIVELGFGGQLQLSIKF,not soluble
20,MKKTAIAIAVALAGFATVAQAEVKLHESGAGLVKPGASVEISCKATGYTFSSFWIEWVKQRPGHGLEWIGEILPGRGRTNYNEKFKGKATFTAETSSNTAYMQLSSLTSEDSAVYYCATGNTMVNMPYWGQGTTVTVSSASTKGPSVFPLAPSSKSTSGGTAALGCLVKDYFPEPVTVSWNSGALTSGVHTFPAVLQSSGLYSLSSVVTVPSSSLGTQTYICNVNHKPSNTKVDKKVEPKSCSAWSHPQFEK,soluble
21,MKKTIISTLVIGLVSGCSNTNLLKDNLASEQSVINLSKSSNEAKSRNIEFLSGAYLSERKVPKHDIKFSGKYVEFESKSPIELIDVLDGLSKQYNIQYVFSDELEDENSEENKKSSGSSSAKKIKYSGPLAGFFDYLSSAYNMHFEFGHNNLVKAYHYKNQVFNLQQYFDDNKFSSSMQIGGTSGTSSGLKGTADTAIESNSWEKIDEFLSASLGETGKFTIFEDYSLVTVKARPDKFLLLHTFFDKLINESKMQIAVDYRVVSLSEERLNQLAAKFGIENAGKYSITSDMVDAISLSQVGGGLGASYRSASARLDAVVNELSQEVMHEGHFIGIPNRVMPLNVTTNSKYISSIETTKDTNTDEETRTVKVSDLVTGFSMMVMPKILDDGRIQISSGFSRKQLVSIGTAQGITLPTVDENESMNTVTMNPGEVRLAMLFKDNYIQNSNGVQLLGGGTENKKSARYIAVLVGASSYKTNDLASNRVNIYD,not soluble
22,MKKTKVHLISGFLGTGKTTALKSLMAQKDPNEKWVIIVNEFGEIGIDGAVLSDNGIPVAEIAGGCLCCTAGPQMGVTVQKMLRDAKPDRLMIEASGLAHAASVIDELKTKPLDSLLEIGAVFTVVDPRQFINPDYAQQALYKDQIGICDVLVASKTDLCTPEQLAEFHDKAAKLFPPKAKVVEVQNAQLDIQWLDIPVIEKSRYRLKALPDNTMGFQSQGFTFPAGRDFDGEKLTNFFNDLPNMTEGLVRAKGVFQVLGTWVWLNWVDGQWGANQVSWRRDSRFELIAKSFDADLIEQKLKDALELEHHHHHH,not soluble
